Results taken from article PMC5216731.

Biological target: GST-obscurin-PH (human) (UniProt Q5VST9)
Test: SPR; Biacore 3000; GST-obscurin-PH immobilised on a CM5 chip, HIS-PI3K-p85/SH3 as analyte at 8-250 nM, 20 ul/min, 180 s association, 180 s dissociation; 1:1 Langmuir model

Sequence of UniProt Q5VST9 (Q5VST9 5895-6004): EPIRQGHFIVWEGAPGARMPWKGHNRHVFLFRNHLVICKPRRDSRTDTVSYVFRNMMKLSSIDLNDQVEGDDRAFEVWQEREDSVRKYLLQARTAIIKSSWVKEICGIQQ

HIS-PI3K/p85-SH3 (from UniProt O00459 4-80) (domain or fragment)
Kd: 50 nM
